# ± gives the half width of the 95% confidence interval.
# Assay: folding stability dG unfold from trypsin proteolysis; higher = more stable
# Outline: (§1)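 Designed mini-proteins with no cysteine and under 80 residues were kept only if AlphaFold2 dimer inter-PAE was above 15. In a PA-tagged cDNA display construct, they were digested with trypsin and chymotrypsin and then sequenced. K50 was inferred by Bayesian fitting of counts, and unfolding free energy was derived per protease or combined against a sequence-predicted unfolded-state K50 and a shared folded-state K50.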
row,Sequence,folding stability dG unfold
1,SAGGSAGGSAGGKKVTITITIKVKEGEEITINGKKITVKPGETITITITITVPPKKKKKSAGGSAGGSAGGS [r10_949_TrROS_Hall],1.57 ± 0.13 kcal/mol
2,SAGGSAGGSAGGMTPIEKEEPHHHMTFTREGDTVSLETFPGSGSIRKTLPSEEEVEKLLSAGGSAGGSAGGS [r10_1104_JUSTAS],-0.413 ± 0.071 kcal/mol
3,SAGGSPNFRIHIEGPEGKTLQYPVDPGFNKPDIQDWLQELGNIEIDQHPNDGWITIRIPKDALDQFSAGGSA [r2_164_TrROS],0.226 ± 0.12 kcal/mol
4,SAGGMVTVDTDPTEDGTLRVTVTVPRPDGPALTLTLDFPPEAGSLAVVLARADEALAAEMARRGLALSAGGS [r8_464_JUSTAS],-0.0072 ± 0.27 kcal/mol
5,SAGGGPVTVTVTFKPPSTGLTSTVTLPFPNVSSYEEAKERAEELAKEAGGPIETITFTDPATGKAHPLSAGG [r13_771_JUSTAS],0.449 ± 0.068 kcal/mol
6,SAKKKFKVKEVKVTKHKGKFKIGDKEIEKELYTVNVVIEDENGNKYPFTFTFEKPEELKKFVEKLEEEKSAG [r14_36_TrMRF],3.03 ± 0.17 kcal/mol
7,SAGGSWVIIIQITIRNPGEERKITIPMEEIQGMPLEQIADNLRKLPGIGDVTIEIQEFPPPKPNDPSAGGSA [r2_282_TrROS],2.31 ± 0.11 kcal/mol
8,SAGGSAGGSAGGMSLSTSVESLTVFDSSGNVLEERTITVEKTVPLFGKPVYVYPTPSNTLSAGGSAGGSAGG [r17_325_JUSTAS],0.136 ± 0.1 kcal/mol
9,SAGDVVEIEITYWVPPDEMTVDEFVDHIMSMLPGVKVKSIEIDEIHPYPDGWYEVTVNYTIEVPPGQEISAG [r5_682_TrROS],2.53 ± 0.39 kcal/mol
10,SMSLVVSEEVDPATGTTTVTTTFPSPGVTVTATASAAGDSVTTTVTTTSPAPSAPTTTTTTTPVAPPGTDAS [r1_404_JUSTAS],1.55 ± 0.067 kcal/mol
11,SAGMTFTVDVEEETFSETKVIRVPVEYDDPALVDVAAAEIREALGIPESESVTVEREPRRATITIVIPASAG [r14_804_JUSTAS],0.267 ± 0.031 kcal/mol
12,SAGGKEVLTVTVEVEIDGVLIRVEAEVTLDEDGNLTVTITRIEIRPLPPPKIDLRDLTDEQRKELGIESAGG [r13_964_TrROS_Hall],2.04 ± 0.096 kcal/mol
13,SAGGKPTQTITITLKDGRTLTIKVGQTVTITLDNGKTITVTVKDATITVKDGKVTITVNGKTYTFTVKSAGG [r13_643_TrROS_Hall],3.45 ± 0.24 kcal/mol
14,SAMVLDLTELLREKAAEIRKADPRPLTPEELRELAREAAEELAKETGKPITEIRVEETDEWPRITAVVLSAG [r14_147_JUSTAS],1.04 ± 0.044 kcal/mol
15,SAGGSAGGSAGGSDNSITLDFFFNNYYIKITFNPWNGNLEIDEVQKVPPPPKPKDPGDKSAGGSAGGSAGGS [r4_21_TrROS],2.71 ± 0.13 kcal/mol
16,SAGGSAGSMSPEEVAERIRQEALARDPNWTVEVTPLPGPRPVLRLEIYRVDPNSDSVTPVSTLVVGSAGGSA [r15_682_JUSTAS],0.857 ± 0.018 kcal/mol

row,Sequence,folding stability dG unfold
1,SAGGSMKVEVTVTETSTLGDGTRTYTVAVLIDGTPLTFTFPFTSEEEFREAVEEWAKERGVEITLTPSSAGG [r13_750_JUSTAS],3.7 ± 0.084 kcal/mol
2,SMKVKPGEKIKVTVLALFYDKETKKLYLVKAEVEATVELDEDGNLTVKVEVKKVEVVEEMPLDELKELLKSA [r9_423_TrROS_Hall],2.29 ± 0.14 kcal/mol
3,SAGGSAGGSAGGSSMSSGPGRLSITTSTVDTGSFFKPGGEVEGSKTTTVTVTTLLPPSTPSAGGSAGGSAGG [r7_614_JUSTAS],0.21 ± 0.025 kcal/mol
4,SLLELAKQANGPLKINVKSEWVTLPDGTPVEIINVEVSQDPNSDVATVTKTVVDPDKDTSSTSTSTIPLGSS [r1_448_JUSTAS],-0.95 ± 0.17 kcal/mol
5,SAGGSAMIITFDKKTGKLTIYNKETGKKIEAEITKIEKIPEDKKYVKIKIKNKKTKKEFEFIFKIKSAGGSA [r15_209_TrROS_Hall],2.57 ± 0.16 kcal/mol
6,SKKKKIKKITLTFTTSDGSTITIEIDADQTVTITLPDGSTITITFDKDTGILTITVTNKDGSKQEFKIELSA [r9_99_TrROS_Hall],1.82 ± 0.075 kcal/mol
7,SAMPLEDMTPEQAEEFAKEFINRFQQENQKKGGPIPPGQEIEIPVRYKGGPVYIKITVTNPGNINIEVESAG [r14_501_TrROS],0.448 ± 0.048 kcal/mol
8,SAGGSAGGSAGPEWYVVMRVENPGTGKEVHFIGPWDDFKEKLPPSNVKMEWHLIPADALKSAGGSAGGSAGG [r11_334_TrROS],0.0887 ± 0.066 kcal/mol
9,SAGMDKPLKVLEIGGAILPNTGKVVLKAKVEDPDSNTPLDLTLTLPVVDPVTGKPYIFTASYTYESPLSAGG [r19_129_TrMRF],0.338 ± 0.13 kcal/mol
10,SAGGKKKYRIKITYKDEGKLYEVPEDVKATVDPNNVVYIEVDSKEAVDELVKAIAPKDGLEVEVEPGSAGGS [r8_131_TrMRF],0.52 ± 0.044 kcal/mol
11,SAGGSAGGSAMTVLVMEIKIELRVNEDGSLELRMEIEIKPVEPITLEELAEKLGLSKEELLSAGGSAGGSAG [r3_338_TrROS_Hall],3.28 ± 0.12 kcal/mol
12,SAGGFIRIETPNGKKISPEVREEAEEAIRDGDWDDAVKKISDWLRERFGHPMPIKIEVMMPPPKPPKSAGGS [r8_48_TrROS],0.547 ± 0.061 kcal/mol
13,SAGGSAGGSSVSVSFPSSVTKVEPELNDPNLTTFFESPGLVIKVTVVPGTGKVIIEKKPLSELSAGGSAGGS [r12_858_JUSTAS],0.858 ± 0.023 kcal/mol
14,SAGGSAGGSAGPPDQNFLIKIKWQENGKKREHTIPIPAENLDEVLDELSPWPGLEVEIIPSAGGSAGGSAGG [r17_50_TrROS],-0.408 ± 0.085 kcal/mol
15,SAGGSAGGSNMPIKNVELHPLPNGWYLIKIRYGGKTRTFLFPPGAPFEIPLPPGMEIDIYPLNSAGGSAGGS [r12_373_TrROS],3.73 ± 0.066 kcal/mol

# Assay: folding stability dG unfold from chymotrypsin proteolysis; higher = more stable
# Outline: as §1
row,Sequence,folding stability dG unfold
1,SAGGSAGGSAGGKKVTITITIKVKEGEEITINGKKITVKPGETITITITITVPPKKKKKSAGGSAGGSAGGS [r10_949_TrROS_Hall],2.38 ± 0.31 kcal/mol
2,SAGGSAGGSAGGMTPIEKEEPHHHMTFTREGDTVSLETFPGSGSIRKTLPSEEEVEKLLSAGGSAGGSAGGS [r10_1104_JUSTAS],0.156 ± 0.096 kcal/mol
3,SAGGSPNFRIHIEGPEGKTLQYPVDPGFNKPDIQDWLQELGNIEIDQHPNDGWITIRIPKDALDQFSAGGSA [r2_164_TrROS],0.0882 ± 0.21 kcal/mol
4,SAGGMVTVDTDPTEDGTLRVTVTVPRPDGPALTLTLDFPPEAGSLAVVLARADEALAAEMARRGLALSAGGS [r8_464_JUSTAS],1.95 ± 0.14 kcal/mol
5,SAGGGPVTVTVTFKPPSTGLTSTVTLPFPNVSSYEEAKERAEELAKEAGGPIETITFTDPATGKAHPLSAGG [r13_771_JUSTAS],0.213 ± 0.27 kcal/mol
6,SAKKKFKVKEVKVTKHKGKFKIGDKEIEKELYTVNVVIEDENGNKYPFTFTFEKPEELKKFVEKLEEEKSAG [r14_36_TrMRF],4.075 ± 0.028 kcal/mol
7,SAGGSWVIIIQITIRNPGEERKITIPMEEIQGMPLEQIADNLRKLPGIGDVTIEIQEFPPPKPNDPSAGGSA [r2_282_TrROS],2.34 ± 0.099 kcal/mol
8,SAGGSAGGSAGGMSLSTSVESLTVFDSSGNVLEERTITVEKTVPLFGKPVYVYPTPSNTLSAGGSAGGSAGG [r17_325_JUSTAS],0.248 ± 0.11 kcal/mol
9,SAGDVVEIEITYWVPPDEMTVDEFVDHIMSMLPGVKVKSIEIDEIHPYPDGWYEVTVNYTIEVPPGQEISAG [r5_682_TrROS],2.82 ± 0.12 kcal/mol
10,SMSLVVSEEVDPATGTTTVTTTFPSPGVTVTATASAAGDSVTTTVTTTSPAPSAPTTTTTTTPVAPPGTDAS [r1_404_JUSTAS],-0.3 ± 0.077 kcal/mol
11,SAGMTFTVDVEEETFSETKVIRVPVEYDDPALVDVAAAEIREALGIPESESVTVEREPRRATITIVIPASAG [r14_804_JUSTAS],0.954 ± 0.029 kcal/mol
12,SAGGKEVLTVTVEVEIDGVLIRVEAEVTLDEDGNLTVTITRIEIRPLPPPKIDLRDLTDEQRKELGIESAGG [r13_964_TrROS_Hall],2.02 ± 0.086 kcal/mol
13,SAGGKPTQTITITLKDGRTLTIKVGQTVTITLDNGKTITVTVKDATITVKDGKVTITVNGKTYTFTVKSAGG [r13_643_TrROS_Hall],4.73 ± 0.13 kcal/mol
14,SAMVLDLTELLREKAAEIRKADPRPLTPEELRELAREAAEELAKETGKPITEIRVEETDEWPRITAVVLSAG [r14_147_JUSTAS],-0.358 ± 0.3 kcal/mol
15,SAGGSAGGSAGGSDNSITLDFFFNNYYIKITFNPWNGNLEIDEVQKVPPPPKPKDPGDKSAGGSAGGSAGGS [r4_21_TrROS],3.19 ± 0.091 kcal/mol
